Measured values from PMC6362427, “Identification of Three (Iso)flavonoid Glucosyltransferases From Pueraria lobata” (Frontiers in Plant Science, 2019).

B1: PlUGT4 (Pueraria montana var. lobata) (protein)
chain: MEKPHIAVVPSPGFTHLVPILEFSKRLLHLHPEFHITCFIPSVGSPPSSSKAYLQTLPPTITSIFLPPITLDDVPDPSILALQIELSVNLSLPYIKQELESLCSRAKVVALVVDVFANGALDFAKELNLLSYIYLPQSAMLLSLYFYSTKLDEILSSAFRDLTKPIEIPGCVPIHNKDLPIHFQNLSSIGYKGFLERSKRFHVPDGVFMNTFLELEPGAIRALQELVKGKPKVYPVGPIIQMGSVGHENRVECLTWLDKQQEPNSVLYVSFGSGGTLSQEQLNELAFGLELSGQKFLWVVRAPSSVATVGYFCAETKDPLEFLPHGFLERTKEQGLVVPSWAPQIQVLSHGATGGFLSHCGWNSVLESVVQGVPVITWPLFAEQSLNAAMLTDDLKVALRPKVNESGLAEREEIAKVVRGLMEGNEGMEIRKRMGLLKIAAANAIKEDGSSTKTLSEVATSSRGF
notes: full-length ORF (464-477 residues range for the three), GST fusion in pGEX-2T (given as C-terminal fusion with GST tag), E. coli BL21, glutathione Sepharose purified
B2: PlUGT57 (Pueraria montana var. lobata) (protein)
chain: MGSEAPIHVLMVSYPAQGHINPLLRLGKCLAAKGLFVTFTTSETAGKDMRKANNITDKSVIPVGDGFLKFDFFEDGMADDDVSKKKSLSDVSAQLELVGKQYVSQMIKKHAESHHPISCIINNPFVPWVCDVAAEHAIPSAMLWIQSSAVFTAYYSYFYKLVSFPSDADPYVDVQLSSVVLKHNEVPDFLHPFSPYRFLGTLILEQFKNLSKPFCVLVDSFEELEHDYIDYLSKFLDIRPVGPLFKTPIATGTSDIRGDFMKSDDCIEWLNSRAPASVVYISFGSIVYLPQEQVTEIAHGLLNSHVSFLWVLKPPPKGYGVPPHVLPDGFFEGTRDKGKVVQWSPQEEVLAHPSVACFLTHCGWNSSMEALTLGMPMLTFPAWGDQVTNAKFLVDVFGVGIKLGYGHAAKKVVSREEVKKCLLEATVGPKAEELKQISFKWKKAAEAAVAANGSSARNLDAFMKDIKKRGAVGVNEI
notes: as for B1

Assays:
HPLC glucosylation assay [1] = substrate: O=c1c(-c2ccc(O)cc2)coc2cc(O)ccc12; experiment: HPLC glucosylation assay; assay type: biochemical, Pueraria montana; settings: UDP-glucose co-substrate (5 mM in the activity assay), 50 mM Tris-HCl pH 8.0, 30°C
HPLC glucosylation assay [2] = substrate: O=c1c(-c2ccc(O)cc2)coc2cc(O)cc(O)c12; experiment: HPLC glucosylation assay; assay type: biochemical, Pueraria montana; settings: UDP-glucose co-substrate (5 mM in the activity assay), 50 mM Tris-HCl pH 8.0, 30°C

Protein | Km (HPLC glucosylation assay [1]) [µM] | kcat (HPLC glucosylation assay [1]) [s⁻¹] | kcat/Km (HPLC glucosylation assay [1]) [M⁻¹ s⁻¹] | Km (HPLC glucosylation assay [2]) [µM] | kcat (HPLC glucosylation assay [2]) [s⁻¹] | kcat/Km (HPLC glucosylation assay [2]) [M⁻¹ s⁻¹]
B1 | 110.8 ± 36.4 | 0.0075 ± 0.0009 | 67.1 | 87.3 ± 38.9 | 0.014 ± 0.0021 | 156
B2 | 16.3 ± 1.87 | 0.034 ± 0.0009 | 2100 | 7.68 ± 3.58 | 0.11 ± 0.01 | 13700
